Values of other authors in PMC5934386.
Read-outs that look alike come from different tables or passages of the source.

Legend:
Ubiquitin (Homo sapiens) [1] = molecular target: Ubiquitin (Homo sapiens) (UniProt P0CG47)
Ubiquitin (Homo sapiens) [2] = molecular target: Ubiquitin (Homo sapiens) (UniProt P0CG47); assay: NMR

E2-25K UBA, sequence (P61086 157-200): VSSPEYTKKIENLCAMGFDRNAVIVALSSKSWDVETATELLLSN
yeast E2-25K, sequence (P21734 whole entry): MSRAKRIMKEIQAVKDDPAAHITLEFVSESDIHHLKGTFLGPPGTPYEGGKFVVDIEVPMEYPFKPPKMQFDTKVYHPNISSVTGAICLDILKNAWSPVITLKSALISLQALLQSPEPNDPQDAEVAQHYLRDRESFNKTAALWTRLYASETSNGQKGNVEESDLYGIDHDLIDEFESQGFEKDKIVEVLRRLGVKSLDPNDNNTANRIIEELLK

Substance | Kd (Ubiquitin (Homo sapiens) [1]) | Kd (Ubiquitin (Homo sapiens) [2])
E2-25K UBA (from UniProt P61086) | 1.2 mM | –
yeast E2-25K (from UniProt P21734) | – | 228 µM
